To fix the notation:
B1: TRIM55 (parent)
chain: YLPTRGGTTMASGGRFRCPSCRHE
B2: ELF3 (parent)
chain: RLVYKFGKNSSGWKEEEVLQSRN
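Also: lentivirally expressed fusions sorted by FACS into six bins by GFP to DsRed ratio, PSI derived from sequencing read proportions per bin multiplied by bin number.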

In the first data set the parent is B1. The data set is described as follows: protein stability index of a GFP-peptide fusion (GPS, HEK-293T) (PSI 1-6); higher = more stable. The settings on record: c terminus: a fixed tail appended.
For YLPTRGGSTMASGGRFRCPSCRHE [T8S], the protein stability index is 1.14.

Take YLPTRGGNTMASGGRFRCPSCRHE [T8N]: the protein stability index is 1.98.

In the case of YLPTRGGRTMASGGRFRCPSCRHE [T8R], the protein stability index is 1.94.

Take YLPTRGGMTMASGGRFRCPSCRHE [T8M]: the protein stability index amounted to 4.36.

On to YLPTRGGATMASGGRFRCPSCRHE [T8A], for which the protein stability index turned out to be 1.11.

In the case of YLPTRPGTTMASGGRFRCPSCRHE [G6P], the protein stability index is 1.78.

As for YLPTRNGTTMASGGRFRCPSCRHE [G6N], the protein stability index came to 1.21.

On to YLPTRCGTTMASGGRFRCPSCRHE [G6C], for which the protein stability index was determined as 1.84.

As for YLPTREGTTMASGGRFRCPSCRHE [G6E], the protein stability index is 1.67.

For YLPTRYGTTMASGGRFRCPSCRHE [G6Y], the protein stability index was 1.37.

As for YLPTRWGTTMASGGRFRCPSCRHE [G6W], the protein stability index came out at 1.46.

Regarding YLPTRLGTTMASGGRFRCPSCRHE [G6L], the protein stability index came to 1.76.

For YLPTRDGTTMASGGRFRCPSCRHE [G6D], the protein stability index came out at 2.45.

Turning to YLPTRQGTTMASGGRFRCPSCRHE [G6Q], the protein stability index stood at 2.15.

On to YLPTRIGTTMASGGRFRCPSCRHE [G6I], for which the protein stability index worked out at 1.04.

As to YLPTRSGTTMASGGRFRCPSCRHE [G6S], the protein stability index was 1.97.

In the case of YLPTRGGTTMESGGRFRCPSCRHE [A11E], the protein stability index was found to be 2.

On to YLPTRGGTTMFSGGRFRCPSCRHE [A11F], for which the protein stability index came to 1.98.

For YLPTRGGTTMHSGGRFRCPSCRHE [A11H], the protein stability index was determined as 1.83.

For YLPTRGGTTMKSGGRFRCPSCRHE [A11K], the protein stability index was 1.36.

For the variant YLPTRGGTTMYSGGRFRCPSCRHE [A11Y], the protein stability index stood at 3.34.

As for YLPTRGGTTMTSGGRFRCPSCRHE [A11T], the protein stability index was 2.46.

Take YLPTRGGTTMNSGGRFRCPSCRHE [A11N]: the protein stability index is 1.65.

With YLPTRGGTTMQSGGRFRCPSCRHE [A11Q], the protein stability index was found to be 1.96.

In the case of YLPTRGGTTMRSGGRFRCPSCRHE [A11R], the protein stability index worked out at 1.37.

In the case of YLPTRGGTTMISGGRFRCPSCRHE [A11I], the protein stability index is 1.05.

Regarding YLPTRGGTTMMSGGRFRCPSCRHE [A11M], the protein stability index came to 1.18.

For the variant YLPPRGGTTMASGGRFRCPSCRHE [T4P], the protein stability index turned out to be 1.36.

Turning to YLPLRGGTTMASGGRFRCPSCRHE [T4L], the protein stability index was 2.73.

For YLPYRGGTTMASGGRFRCPSCRHE [T4Y], the protein stability index amounted to 1.24.

In the case of YLPQRGGTTMASGGRFRCPSCRHE [T4Q], the protein stability index was 1.7.

For YLPMRGGTTMASGGRFRCPSCRHE [T4M], the protein stability index was 1.26.

Consider YLPVRGGTTMASGGRFRCPSCRHE [T4V], for which the protein stability index turned out to be 4.07.

Consider YLPWRGGTTMASGGRFRCPSCRHE [T4W], for which the protein stability index came to 1.

On to YLPERGGTTMASGGRFRCPSCRHE [T4E], for which the protein stability index was 3.35.

With YLPSRGGTTMASGGRFRCPSCRHE [T4S], the protein stability index worked out at 2.1.

In the case of YLPCRGGTTMASGGRFRCPSCRHE [T4C], the protein stability index worked out at 3.98.

As to YLPHRGGTTMASGGRFRCPSCRHE [T4H], the protein stability index was found to be 1.19.

Regarding YLPTRGKTTMASGGRFRCPSCRHE [G7K], the protein stability index amounted to 1.01.

YLPTRGWTTMASGGRFRCPSCRHE [G7W]: the protein stability index came to 1.5.

In the case of YLPTRGITTMASGGRFRCPSCRHE [G7I], the protein stability index was 1.45.

For YLPTRGETTMASGGRFRCPSCRHE [G7E], the protein stability index stood at 1.75.

For the variant YLPTRGRTTMASGGRFRCPSCRHE [G7R], the protein stability index was 1.12.

Turning to YLPTRGYTTMASGGRFRCPSCRHE [G7Y], the protein stability index was 2.17.

In the case of YLPTRGATTMASGGRFRCPSCRHE [G7A], the protein stability index worked out at 1.64.

Consider YLPTRGFTTMASGGRFRCPSCRHE [G7F], for which the protein stability index was 1.26.

For the variant YLPTRGVTTMASGGRFRCPSCRHE [G7V], the protein stability index worked out at 1.37.

For YLPTRGLTTMASGGRFRCPSCRHE [G7L], the protein stability index worked out at 1.34.

YLPTRGTTTMASGGRFRCPSCRHE [G7T]: the protein stability index was 2.33.

With YLPTRGQTTMASGGRFRCPSCRHE [G7Q], the protein stability index was 2.24.

For YLPTRGPTTMASGGRFRCPSCRHE [G7P], the protein stability index amounted to 2.91.

The variants in the next data set derive from B2. The data set is described as above. The settings on record: c terminus: native.
With RLVYKFGKNSSGWKEEEVLQSKN [R22K], the protein stability index amounted to 3.75.

Regarding RLVYKFGKNSSGWKEEEVLQSSN [R22S], the protein stability index came out at 2.92.

Consider RLVYKFGKNSSGWKEEEVLQSDN [R22D], for which the protein stability index came to 4.7.

Turning to RLVYKFGKNSSGWKEEEVLQSAN [R22A], the protein stability index stood at 2.85.

Take RLVYKFGKNSSGWKEEEVLQSTN [R22T]: the protein stability index worked out at 3.51.

Consider RLVYKFGKNSSGWKEEEVLQSFN [R22F], for which the protein stability index came out at 3.01.

For the variant RLVYKFGKNSSGWKEEEVLQSNN [R22N], the protein stability index amounted to 3.96.

Consider RLVYKFGKNSSGWKEEEVLQSCN [R22C], for which the protein stability index stood at 2.35.

Take RLVYKFGKNSSGWKEEEVLQSYN [R22Y]: the protein stability index was 2.06.

For RLVYKFGKNSSGWKEEEVLQSHN [R22H], the protein stability index is 3.53.

RLVYKFGKNSSGWKEEEVLQSIN [R22I]: the protein stability index was 3.42.

For the variant RLVYKFGKNSSGWKEEEVLQSMN [R22M], the protein stability index came out at 2.72.

As for RLVYKFGKNSSGWKEEEVLQSQN [R22Q], the protein stability index is 3.02.

As for RLVYKFGKNSSGWKEEEVLQSPN [R22P], the protein stability index was found to be 3.62.

Take RLVYKFGKNSSGWKEEEVLQSLN [R22L]: the protein stability index came to 2.56.

Turning to RLVYKFGKNSSGWKEEEVLQFRN [S21F], the protein stability index amounted to 1.94.

For RLVYKFGKNSSGWKEEEVLQGRN [S21G], the protein stability index turned out to be 2.26.

With RLVYKFGKNSSGWKEEEVLQNRN [S21N], the protein stability index worked out at 2.49.

RLVYKFGKNSSGWKEEEVLQIRN [S21I]: the protein stability index turned out to be 2.41.

For the variant RLVYKFGKNSSGWKEEEVLQTRN [S21T], the protein stability index turned out to be 2.1.

As for RLVYKFGKNSSGWKEEEVLQQRN [S21Q], the protein stability index was 3.82.

Consider RLVYKFGKNSSGWKEEEVLQLRN [S21L], for which the protein stability index is 3.31.

With RLVYKFGKNSSGWKEEEVLQMRN [S21M], the protein stability index came to 2.31.

As to RLVYKFGKNSSGWKEEEVLQYRN [S21Y], the protein stability index turned out to be 2.72.

Turning to RLVYKFGKNSSGWKEEEVLQVRN [S21V], the protein stability index stood at 1.82.

On to RLVYKFGKNSSGWKEEEVLQKRN [S21K], for which the protein stability index was 2.95.

Turning to RLVYKFGKNSSGWKEEEVLQPRN [S21P], the protein stability index was found to be 3.39.

With RLVYKFGKNSSGWKEEEVLQSRW [N23W], the protein stability index is 2.13.

With RLVYKFGKNSSGWKEEEVLQSRC [N23C], the protein stability index is 1.7.

Consider RLVYKFGKNSSGWKEEEVLQSRQ [N23Q], for which the protein stability index was 1.87.

On to RLVYKFGKNSSGWKEEEVLQSRE [N23E], for which the protein stability index turned out to be 3.68.

Consider RLVYKFGKNSSGWKEEEVLQSRL [N23L], for which the protein stability index worked out at 3.28.

Turning to RLVYKFGKNSSGWKEEEVLQSRG [N23G], the protein stability index came to 2.

For RLVYKFGKNSSGWKEEEVLQSRK [N23K], the protein stability index worked out at 3.52.

Regarding RLVYKFGKNSSGWKEEEVLQSRF [N23F], the protein stability index is 2.86.

Regarding RLVYKFGKNSSGWKEEEVLQSRY [N23Y], the protein stability index came to 2.31.

RLVYKFGKNSSGWKEEEVLQSRD [N23D]: the protein stability index was 2.7.

As for RLVYKFGKNSSGWKEEEVLQSRS [N23S], the protein stability index was found to be 2.51.

RLVYKFGKNSSGWKEEEVLQSRA [N23A]: the protein stability index amounted to 2.28.

For RLVYKFGKNSSGWKEEEVLQSRP [N23P], the protein stability index was determined as 3.22.

For the variant RLVYKFGKNSSGWKEEEVLQSRV [N23V], the protein stability index came out at 2.62.

As to RLVYKFGKNSSGWKEEEVLQSRM [N23M], the protein stability index came to 1.81.

Take RLVYKFGKNSSGWKEEEVLQSRI [N23I]: the protein stability index was 1.8.

For RLVYKFGKNSSGWKEEEVLQSRT [N23T], the protein stability index is 2.37.

For the origin of these results see the supplement of paper PMC10567573.
